Test results published in publication PMC4143292, “An Enzymatic Platform for the Synthesis of Isoprenoid Precursors” (PLoS ONE, 2014).

System: C=C(OP(=O)(O)O)C(=O)O
Experiment: purified protein
Conditions: Hepes pH 8.0, 25 C, apparent

PK (pyruvate kinase) (Oryctolagus cuniculus), sequence (chain, as listed by the source): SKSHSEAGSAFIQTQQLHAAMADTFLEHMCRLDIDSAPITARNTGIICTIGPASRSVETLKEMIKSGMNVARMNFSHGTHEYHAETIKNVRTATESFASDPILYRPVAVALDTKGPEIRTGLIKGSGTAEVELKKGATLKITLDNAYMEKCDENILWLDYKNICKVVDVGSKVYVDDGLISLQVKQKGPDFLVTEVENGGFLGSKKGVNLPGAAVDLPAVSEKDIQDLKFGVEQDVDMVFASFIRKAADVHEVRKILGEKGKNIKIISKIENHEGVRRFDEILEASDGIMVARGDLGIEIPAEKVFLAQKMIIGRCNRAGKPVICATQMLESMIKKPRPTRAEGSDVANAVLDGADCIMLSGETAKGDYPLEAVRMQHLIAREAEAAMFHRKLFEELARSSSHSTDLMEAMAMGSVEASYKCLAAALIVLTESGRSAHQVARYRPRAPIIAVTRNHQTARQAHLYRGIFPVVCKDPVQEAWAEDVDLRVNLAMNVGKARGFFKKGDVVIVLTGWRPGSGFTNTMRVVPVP

PK (pyruvate kinase) (Oryctolagus cuniculus)
Km: 40 µM
kcat: 160 s⁻¹
